Laboratory results as given in article PMC11796321.

Columns and labels:
[1] = biological target: recombinant his-tagged soluble human IL-11R (human) (UniProt Q14626); test: SPR; Biacore X100, multi-cycle, NTA sensor chip; his-tagged soluble hIL-6R or hIL-11R immobilised (100-250 RU per cycle); cytokines injected 133.33 to 0.183 nM, 30 uL/min, 180 s, dissociation 800 s; 25 °C, PBS with 0.05% P20 and 50 uM EDTA; two-state reaction fit
[2] = biological target: recombinant his-tagged soluble human IL-6R (human) (UniProt P08887); test: as above
Chain of recombinant his-tagged soluble human IL-6R (human) (P08887 20-365): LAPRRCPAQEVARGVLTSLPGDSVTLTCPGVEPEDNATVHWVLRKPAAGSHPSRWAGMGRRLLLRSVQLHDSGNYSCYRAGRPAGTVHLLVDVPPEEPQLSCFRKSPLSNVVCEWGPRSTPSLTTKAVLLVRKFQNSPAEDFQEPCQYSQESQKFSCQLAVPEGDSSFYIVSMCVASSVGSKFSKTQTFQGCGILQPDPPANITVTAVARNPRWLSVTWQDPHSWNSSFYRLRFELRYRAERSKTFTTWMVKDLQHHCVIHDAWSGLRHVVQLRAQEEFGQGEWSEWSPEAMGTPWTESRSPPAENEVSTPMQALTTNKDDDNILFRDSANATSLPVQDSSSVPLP

Chain of chimeric cytokine IC7, Twin-Strep-tagged (IC7ts) (P05231 30-212, change not shown): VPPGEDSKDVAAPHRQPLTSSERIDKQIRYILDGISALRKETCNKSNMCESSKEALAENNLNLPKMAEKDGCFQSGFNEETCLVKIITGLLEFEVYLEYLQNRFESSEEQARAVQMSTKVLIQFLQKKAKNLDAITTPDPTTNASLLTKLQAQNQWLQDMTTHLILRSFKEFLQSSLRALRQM
Chain of recombinant his-tagged soluble human IL-11R (human) (Q14626 24-370): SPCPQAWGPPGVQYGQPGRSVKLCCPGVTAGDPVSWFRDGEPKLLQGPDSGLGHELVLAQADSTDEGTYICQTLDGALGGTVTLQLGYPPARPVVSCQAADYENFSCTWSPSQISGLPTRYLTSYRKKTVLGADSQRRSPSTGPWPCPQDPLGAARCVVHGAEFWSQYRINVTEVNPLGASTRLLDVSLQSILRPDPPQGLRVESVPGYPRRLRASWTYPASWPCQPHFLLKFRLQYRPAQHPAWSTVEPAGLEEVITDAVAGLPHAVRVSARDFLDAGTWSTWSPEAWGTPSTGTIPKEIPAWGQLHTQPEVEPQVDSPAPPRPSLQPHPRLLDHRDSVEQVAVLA

Kd [1]: 0.0481 µM | ka1 (two-state fit, first step) [1]: 59900 M⁻¹ s⁻¹ | ka2 (two-state fit, second step) [1]: 0.0104 s⁻¹ | kd1 (two-state fit, first step) [1]: 0.0193 s⁻¹ | kd2 (two-state fit, second step) [1]: 0.00183 s⁻¹ | Kd [2]: 0.00638 µM | ka1 (two-state fit, first step) [2]: 92200 M⁻¹ s⁻¹ | ka2 (two-state fit, second step) [2]: 0.00751 s⁻¹ | kd1 (two-state fit, first step) [2]: 0.00932 s⁻¹ | kd2 (two-state fit, second step) [2]: 0.000506 s⁻¹
Substance: chimeric cytokine IC7, Twin-Strep-tagged (IC7ts) (from UniProt P05231 30-212) (ligand)
